This is an account of results in the nanobody polyreactivity screen of Harvey et al. (2022).

The nature of this data set: yeast display, Sf9 membrane polyspecificity reagent, FACS + sequencing; frameworks hold sequencing errors. In a few lines:
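In a synthetic yeast display library (Saccharomyces cerevisiae BJ5465), nanobody expression was induced with galactose for 36–48 hours. FACS gates were set low and high (top ~1%) using anti-HA fluorescence for expression and streptavidin fluorescence for binding of the Sf9 membrane reagent. Each polyreactivity label is drawn from the gate of origin.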
With “QVQLVESGGGLVQAGGSLRLSCAASGSTFRYYAMGWYRQAPGKERELVAAISSSGGSTYYADSVKGRFTISRDNAKNTVYLQLNSLKPEDTAVYYCNRGVVYRTGRFDYWGQVTQVTVSS”, the “polyreactivity (PSR sort gate)” value was “high polyreactivity”. As to “QVQLVESGGCLVQAGGSLRLSCAASGRTYQNNAMGWYRQAPGKERELVAAISRSGASTYYADSVKGRFTISRDNAKNTVYLQMNSLKPEDTAVYYCAARYPRTAYDYWGQGTQVTVSS”, the “polyreactivity (PSR sort gate)” value was “low polyreactivity”. Regarding “QVQLVESGGGLVQAGGSLRLSCAASGITFYSNAMGWYRPAPGKERELVAAISYRGGSTYYADSVKGRFTISRDNAKNTVYLQMNSLKPEDTAVYYCNKEVDWGWGRISYDSWGQGTQVTVSS”, the “polyreactivity (PSR sort gate)” value is listed as “low polyreactivity”.

For the sequence “QVQLVESGGGLVQAGGSLRLSCAASGRTFGYAMGWYRQAPGKERERVAAISSGGGRTYYADSVKGRFTISRDNAKNTVYLQMNSLKPEDTAVFYCNARHIFGASRRARFGYWGQGTQVTVSS”, the “polyreactivity (PSR sort gate)” value was “high polyreactivity”.

On to “QVQLVESGGGLVQAGGSLRLSCAASGITFYYYAMGWYRQAPGKERELVADISSSGGSTYYADSVKGRFTISRDNAKNTVYLQMNSLKPEDTAVYYCNAVYRWYRPRVRFFRYDYWGQGTQVTVSS”, for which the “polyreactivity (PSR sort gate)” value is on record as “high polyreactivity”. As for “QVQLVESGGGLVQAGGSLRLSCAASGFTFGHYAMGWYRQAPGKERELVAAISKSGTRTYYADSVKGRFTISRDNAKNTVYLLMNSLKPEDTAVYYCATTAYNGYDYWGQGTQVTVSS”, the “polyreactivity (PSR sort gate)” value is reported as “high polyreactivity”. On to “QVQLVESGGGLVQAGGSLRLSCAASGFTFYAYAMGWYRPAPGKERELVAALTGRGGSTYYADSVKGRFTISRDNAKNTVYLQMNSLKPEDTAVYYCNKVKQSDKFNNFSNDYWGQGTQVTVSS”, for which the “polyreactivity (PSR sort gate)” value is given as “high polyreactivity”. For the sequence “QVKLVDSGGGLVQAGGILRLSCAASGRIFSDYAMGWYRQAPGKERELVATITSGDSTNYADSVKGRFTISRDNAKNTVYLQMNSLKPEDTAVYYCNADRVYVRGRFTYDYWGQGTQVTVSS”, the “polyreactivity (PSR sort gate)” value is listed as “low polyreactivity”.

On to “QVQLVESGGGLVQAGGSLRLSCDASGSTFGTYAMGWYRQAPGKERELVATITYRGGSTNYADSVKGRFTISRDNAKNTVYLQMISLKPEDTAVYYCAADYFSQLAGIFDYWGLGTQVTVSS”, for which the “polyreactivity (PSR sort gate)” value is recorded as “low polyreactivity”. In the case of “QVQLVESGGGLVQEGGSLRLSCAASGFIVSYYTMGWYRQAPGKERELVAAIRSSGGSTYADSVKGRFTISRDNAKNTVYLQMNSLKPEDTAVYYCAAVQTWRWVYARDYWGQGTQVTVSS”, the “polyreactivity (PSR sort gate)” value is “high polyreactivity”. With “QVQLVESGGGLVQAGGSLRLSCAASGRTFAANTMGWYRQAPGKERELVAAINAGGSTYYADSVKGRFTISRDTAKNTVYLQMNSLKPEDTAVYYCAAKGSGYYGRQRIYSYTYDYWGQGTQVTVSS”, the “polyreactivity (PSR sort gate)” value is “high polyreactivity”. Under “QVQLVESVGGLVQAGGSLRLSCAASGITFFGNAMGWYRQAPGKERELVASISNGDNTNYADSVKGRFTISRDNAKNTVYLQMNSLKPEDTAVYYCAAWLAYSSRYGYWGQGTQVSVSS” stands “low polyreactivity”.

For “QVQLVESGGGLVQAGGSLRLSCAASGRIFPSYAMGWYRQAPGKERELVAAISYSGASTYYADSVKGRFTISRDNAKNTVYLQMNSLKPEDTAVYYCYQLVEEDYWGLGTQVTVSS”, the “polyreactivity (PSR sort gate)” value is “low polyreactivity”. Turning to “QVQLVESGGGLVQAGGSLRLSCAASGLTFTTYAMGWYRPAPGKERELVASIRTGGSTNYADSVKGRFTISRDNAKNTVYLQMNSLKPEETAVYYCAAGRRIDKRYEYWGQGTQFTVSS”, the “polyreactivity (PSR sort gate)” value is “low polyreactivity”.

Take “QVQLVESGGGLVQAGGSLRLSCAASGSIFHGYAMGWYRQAPGKERELVAAITYSGGRTYYADSVKGRFTISRDNAKNTVYLQMNSLKPEDTAVYYCAALTRRVKKYDYWGQGTQVTVSS”: the “polyreactivity (PSR sort gate)” value is on record as “high polyreactivity”. With “QVQLVESRGGLVQAGGSLRLSCAASGSTFTHYAMGRYRHAPGKERELVAAISWGGGTTRYADSVKGRFTISRDNAKNSVYLQMNSLKPVDTAVYYCAKRVRTGSVGNFNYWGQGTQVSVSS”, the “polyreactivity (PSR sort gate)” value is on record as “high polyreactivity”. “QVQLVESGGGLVQAGGSLRLSCAASGRIFAYYAMGWYRQAPGKERELVATISTGGGTYYADSVKGRFSISRDNAKNTVYLQMNSLKPEDTAVYYCAAAPYWYYGYYYWGQGTQVTVSS”: the “polyreactivity (PSR sort gate)” value was “high polyreactivity”. In the case of “QVQLVESVGGLVQAGGSLRLSCAASGSTFRPYAMGWSRQAPGKERELVAAITGSGGSTYYADSVKGRFTISRDNAKNTVYLQMNSLKPEDTAVYYCNAVSTWRYYYWGQGTQVTVSS”, the “polyreactivity (PSR sort gate)” value is recorded as “high polyreactivity”.

“QVQLEDSGGGLVQAGGSLRLSCAASGSTFPLNAMGWYRQAPGKERELVASINFGGGTTYYADSVKGRFTISRDNAMNTVYLQMNSLKPEDTAVYYCAADVYQEFGYWGQGTQVTVSS”: the “polyreactivity (PSR sort gate)” value is recorded as “high polyreactivity”. Consider “QVQLVESGGGLLQAGGSLRLSCAASGSTFGYYAMGWYRQAPGKERELVAAITRSGTNTYYADSVKGRFTISRDNAKNTVYLQMNSLKPEDTAVYYCNAVSRRRSDYWGQGTQVTVSS”, for which the “polyreactivity (PSR sort gate)” value was “high polyreactivity”.

As for “QVQLQESGGGLVQAGGSLRLSCAASGTISQEDWMGWYRQAPGKEREFVAAIGLGSNTNYADSLKGRFTISRDNAKNTVYLQMNSLKPEDTAVYYCAVSVWQYSDNVYRGQGTQVTVSS”, the “polyreactivity (PSR sort gate)” value is reported as “low polyreactivity”. With “QVQLVESGGGLVQAGGSLRLSCAPSGSTFRPYGMGWYRQAPCKETELVAAINSGDSTYYADSVKGRFTISSDNAKNTVYLQMNSLKPEDTAVYYCAAGYYIRGRYGYWGQATQVTVSS”, the “polyreactivity (PSR sort gate)” value is “high polyreactivity”.

Regarding “QVQLVESGGGLVQAGGSLRLSCAASGRIFSRYTMGWYRQAPGKERELVAAISYSGGRTYYADSVKGRFTISRDNAKNTVYLQMYSLKPEDTAVYYCAAPRSVVGAYGFYYWGQGTQVTVSS”, the “polyreactivity (PSR sort gate)” value is given as “high polyreactivity”.

As for “QVQLVESGGGLVQAGGSLRLSCAASGSIIGTYAMGWYRQAPGKERELVAAISSSGGRTYYADSVKGRFTISRDNAKNTVYLQMNILKTEYTAVYYCNTRPGTVFRAGGDYWGQGTQVTVSS”, the “polyreactivity (PSR sort gate)” value is reported as “high polyreactivity”. As for “QVQLVESGGGLVQAGGSLRLSCAASGFTFGSNAMGWYRPAAGKERELVASITTRGGSTYYADSVKGRFTISRDNAKNTVYLQMNSLKPEDTAVYYCAARARYPNWTYYYWGQGTQVTVSS”, the entry is “high polyreactivity”; as for “QVQLVESGGGLVQAGGSLRLSCAASGRIFTHNAMGWYIQAPGKERELVAAITSGGRTTYADSVKGRFTISRENAKNTVYLQMISLKPVDTAVYYCAADDLLDYDYWGQGTQVTVSS”, “low polyreactivity”. As to “QVQLVESGGGLVQAGGSLRLRCAASGFTFDLYAMGWYRQAPGKERELVAAISWSGGSTRYADSVKGRFTISRDNAKNTVYLQMNSLKPEDTAVYYCAKPVLVGLGSRYDYWGQGTQVTVSS”, the “polyreactivity (PSR sort gate)” value is listed as “high polyreactivity”. Under “QVQLVESGGGLVQAGGSLRLSCAASGSTFPFYDMGWYRQAPGKERELVTAIRSGGSTYADSVKGRFTISRDNAKNTVYLQMNSLKPVDTAVYYCAKRCPSIRYSRYRVKYDYWGQGTQVTVSS” stands “low polyreactivity”; under “QVQLVESGGGLVQAGGSLRLSSAASGSTFYWYAMGWYRQAPGKERELVASITRSGVRTYYADSVKGRFTISRDNAKNTVYLQMNSLKPEDTAVYYCAAERYYFPRSYRYGYWGQGTQVTVSS”, “low polyreactivity”; under “QVQLVESGGGLVQAGGSLRLSCAASGSTIYYNAMGWYRQAPGKERELVAAISKSSSRTYYADSVKGRFTISRDNAKYSVYLQMNSLKPEDTAVYYCAADAVYYHFDYWGQGTQVTVSS”, “high polyreactivity”. Under “QVQLVESGGGLVQAGGSLRLSCAASGSNFVGYAMGWYRQAPGKERELVAAISWSGDSTYYADSVKGRFTISRDNAKITVYLQMNSLKPEDTAVYYCAVDYAEIGPRREVEYDYWGHGTQVTVSS” stands “low polyreactivity”. As for “QVQLGESGGGLVQAGGSLRLSCASSGRTFVVNAMGWYSQAPGKATEFDAAISYRGDSTYYAVSVKGRFTISRDNAKNTVYLQMNSLKPEATAVYYCAARVLGPGRRYYYWGQCTQVTVSS”, the “polyreactivity (PSR sort gate)” value is on record as “high polyreactivity”. As for “QVQLVESGGGLVQAGGSLRLSCAASGSIFYRYAMGWYRQAPGKEWELVAAISYSGGSTYYADSVKGRFPISRDNAKNTVYVQMNSLKPEDTAVNYCATDYPPPISDYSRYYGYGYWGQGTQVTVSS”, the “polyreactivity (PSR sort gate)” value is listed as “low polyreactivity”. Under “QVQLVESGGGLVQAGGSLRLSCASSGFTFDINAMGWYRQAPGKERELVAVITWNDGSTYYADSVKGRFTISRDNAKNTVYLQMNSLKPEDTAVYYCAAEYADSWSAFDWNYYYWGQGTQVTVSS” stands “high polyreactivity”; under “QVQLVESGGGLVQAGGSLRLSCAASGRIFSHTVMGWYRQAPGKEGELVADISSSGGSTYYADSVKWRFTISRDNAKNTVDFQKNSLKPEYTAVYYCAAAPWASGTDEYWGHGTQVTVSS”, “low polyreactivity”; under “QVQLVESGGGLVQAGGSLRLSCAASGRTFASNAMGWSRQAPGKERELVAAISVTGGRTYYADSVKGRFTISRDNAKNTVYLLMNSLKPEDTAVYYCAKVTKLDPYSYDYWGQGTQVTVSS”, “low polyreactivity”. As for “QVQLVESGGGLVQAGGSLRLSCAASGNIFVSYDLGWYRQAPGKERELVAAISWRGGSTYYADSVKGRFTNSRDNAKNTVFLKMNSLKPEDTAVYYCSVDDWLDWLFADFGYWGQGTQVTVSS”, the entry is “low polyreactivity”; as for “QVQHVESGRGLVQAGGSLRLSCAASGSIQGGNARGCSSQAPGKESELVAAITFSGGGTYYADSVKGRLTISRDNAKNTVYLQMNSVKPEDTAVYYCAADIDGYTYEFDYWGQGTQVTVYS”, “low polyreactivity”; as for “QVQLVESGGGLVQAGGSLRLSCAASGRTFSDYTMGWYRQAPGKERELFAAISGSVVNTYYADSVKGRFTISRDNAKNTVYLQMNSLKPEDTAVYYCAKDRIFYHYALYRWRVESYYWGQGTQVTVSS”, “low polyreactivity”. Take “QVQLVESGGGLVQAGGSLRLSCAASGFTFGGYARGWSRQAPRTERELVAAISSSAGRTYYADSVKGRFTISRDNAKNTVYVQMNRLKPEDTAVYYCNTGGVYGPRRYYYWGQGTQVTVSS”: the “polyreactivity (PSR sort gate)” value is “high polyreactivity”. As for “QVQLVESGGGLVQAGGSLRLSCAASGRIIEHNAMGWYRQAPGKERELVAAINYSGGSTYYADSVKGRFTISRDNAKNTVYLQMNSLKPEDTAVYYCATRTGHWGQGTQVTVSS”, the entry is “low polyreactivity”.
